This is an account of results in patent US20130244253A1.

This assay has as its target TGF-β receptors on cultured rat primary hepatic stellate cells. Kind of assay: cell-based or functional assay.

Substance “purified recombinant NS3 protein (scNS4A-NS3 protease with trx-His-S tag) (enzyme)” registered an expression of the Collagen(I) α1 gene in cultured rat primary hepatic stellate cells of 6 times.
